Several values for one entry are separate records, joined by “and”; a condition that tells them apart may be missing. Equal entries are not always repeated.

The target of experiment [1] is T1, Human CXCR2 (Homo sapiens, UniProt P25025).
T1 sequence (P25025 1-360): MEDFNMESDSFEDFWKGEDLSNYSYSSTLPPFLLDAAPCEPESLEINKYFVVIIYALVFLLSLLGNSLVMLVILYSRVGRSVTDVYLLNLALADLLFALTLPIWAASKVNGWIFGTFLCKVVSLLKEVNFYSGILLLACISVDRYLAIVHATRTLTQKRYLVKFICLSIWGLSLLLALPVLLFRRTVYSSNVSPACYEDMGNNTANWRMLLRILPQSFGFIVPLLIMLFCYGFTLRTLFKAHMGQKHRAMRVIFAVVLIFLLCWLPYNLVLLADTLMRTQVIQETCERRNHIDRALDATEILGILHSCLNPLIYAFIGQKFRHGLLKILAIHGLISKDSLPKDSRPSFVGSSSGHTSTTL
The experiment in a line: Flow cytometry binding assay, Expi293F cells transiently transfected with human CXCR2. Set-up: host or cells: Expi293F cells, vector pTT5. How it is done:
For each 10 mL transfection, lipid-DNA complexes were prepared by diluting 10 μg of plasmid DNA in Opti-MEM™ I Reduced Serum Medium (Cat. no. 31985-062) to a total volume of 1.0 mL. 54 μL of ExpiFectamine™ 293 Reagent was diluted in Opti-MEM™ I medium to a total volume of 1.0 mL. Transfections were carried out according to manufacturer's instructions. The cells were incubated in a 37° C. incubator with a humidified atmosphere of 8% CO2 in air on an orbital shaker rotating at 200 rpm. Approximately 18-24 hours post-transfection, the cell viability was evaluated and transfected cells harvested for use.
(§1) Harvested cells were resuspended in FACS buffer (1×PBS+0.5% (w/v) bovine serum albumin (BSA)+2 mM EDTA pH 7.2). Approximately 2×10^5 cells were added per well in a 96-well round-bottomed plate. Cells were pelleted by centrifugation at 400 g for 5 mins at 4° C. and supernatants discarded. 25 μL of each test antibody or control antibody was added to the cells and incubated for 30 minutes at 4° C. Cells were washed twice in 100 μL FACS buffer followed by centrifugation at 400 g for 5 mins at 4° C.
For detection, 50 μL of secondary antibody (Table 2) was added to relevant samples. Commercially available antibodies that bound to transfected CXCR family members were used as positive controls to ensure that the cells were expressing the receptors. Cells were washed twice in 200 μL of FACS buffer followed by centrifugation at 400 g for 5 mins at 4° C. Before sample acquisition, cells were resuspended in 100 μL of FACS buffer. Samples were acquired using the high throughput sampler on a FACSCanto™ II cytometer (Beckton-Dickinson).
Binding of BKO-4A8 and variants thereof was detected by incubation of fluorochrome-conjugate anti-human IgG light chain lambda antibody. The binding activity of antibodies tested, quantified as mean fluorescent intensity, was independent of the antibody Fc region as illustrated in FIG. 9.
In general terms: A flow cytometer gives signals particle by particle.

Experiment [2] deals with T1, Human CXCR2. In words: cELISA of hybridoma supernatants on cells transfected with human CXCR2. It counts as binding. Set-up: host or cells: Expi293F cells, vector pTT5. The note with it: hybridoma supernatant; fluorescence units relative to positive control (100%). How it is done:
To generate hybridomas which produced monoclonal antibodies to human CXCR2, splenocytes and/or lymph node cells from animals with the highest anti-CXCR2 titres were isolated and fused to mouse myeloma cells (ATCC, CRL-1580). Cells were plated at approximately 1×10^5 cells/mL in flat bottom microtiter plates, followed by a two week incubation in selective medium (10% FCS and 1×HAT (Sigma)). Hybridomas were expanded by serial passage through four media changes in 96-well plates (96-well stages 1 to 4), then, where required, expanded into T25 and T75 flasks. […] Bound antibodies were detected using a goat anti-rat IgG-HRP (Southern Biotech, #3030-05) secondary antibody.
A panel of hybridomas was generated using lymph nodes and spleen cells from the transgenic rats engineered to express human variable region sequences. A cellular ELISA (cELISA) was used to detect human CXCR2 binding activity in supernatants taken during the expansion process for the hybridomas (Table 5). Hybridomas that retained expression of antibodies that bound CXCR2 after several passages were selected for DNA sequencing.

Experiment [3] relates to human CXCR family members (CXCR1, CXCR3, CXCR4, CXCR5, CXCR6, CXCR7). In words: Flow cytometry binding to other human CXCR family members on transfected Expi293F cells. The settings on record: FIG. 11. How it is done:
as §1
For detection, 50 μL of secondary antibody (Table 2) was added to relevant samples. Commercially available antibodies that bound to transfected CXCR family members were used as positive controls to ensure that the cells were expressing the receptors. Cells were washed twice in 200 μL of FACS buffer followed by centrifugation at 400 g for 5 mins at 4° C. Before sample acquisition, cells were resuspended in 100 μL of FACS buffer. Samples were acquired using the high throughput sampler on a FACSCanto™ II cytometer (Beckton-Dickinson). […]
The specificity of the anti-CXCR2 antibody BKO-4A8-101c was tested by assessing binding activity on Expi293F™ cells transiently transfected to express closely related human CXCR family members as illustrated in FIG. 11. Binding of BKO-4A8-101c was detected by incubation of fluorochrome-conjugate anti-human IgG antibody.

Experiment [4] deals with T1, Human CXCR2. In words: Calcium flux assay, HTS002C-CHEMISCREEN human CXCR2 calcium-optimized cell line. It counts as cell-based. The protocol:
One of the signaling pathways downstream of CXCR2 activation that has a role in cell chemotaxis is characterized by calcium mobilization (flux). The ability of BKO-4A8-101c to inhibit human CXCR2 ligand-induced calcium flux was tested in the commercially available HTS002C-CHEMISCREEN™ human CXCR2 chemokine receptor calcium-optimized cell line.
The Fluo-4 NW calcium assay kit (Life Technologies) was used according to manufacturer's protocol for in-cell measurement of calcium mobilization, which was read using a FLIPR Tetra high-throughput cellular screening system (Molecular Devices). The peak response minus the basal response from each well was used to determine inhibition dose response curves fitting a four-parameter logistic equation and IC50 values.
On the technique in general: A change in cytosolic calcium serves as a functional read-out for many receptors and channels.

B1: BKO-4A8: parental anti-CXCR2 antibody, VH SEQ ID NO: 17, VL SEQ ID NO: 18 (antibody, V domains shown)
VH: EVQLLESGGGLVQPGGSLRLSCAASGFTFSSSTMSWVRQAPGKGLEWVSAISGRGRNTYYADSVKGRFTISRDNSRNTLYLQMNSLRAEDTAVYYCAIQMGYWGQGILVTVSS
VL: QSALTQPPSASGSPGQSVTISCIGTSSDVGGYNYVSWYQQHPDKAPKLMIYEVNKRPSGVPDRFSGSKSGNTASLTVSGLQAEDEADYYCSSYAGNNNFGVFGGGTKLTVL
modifications: BKO_4A8_VH; BKO_4A8_VL
As for B1, the “Max binding (MFI)” value in the experiment with Human CXCR2 [1] (combinatorial variants with light chain c, listed as 4A8 Control) is 62074 MFI and 82797 MFI. The 50% effective concentration (EC50) (as a rule, the concentration that produces a half-maximal response) with Human CXCR2 [1] (combinatorial variants, Table 11) is 0.4 nM. In addition, the “Human CXCR2 % Positive” value with Human CXCR2 [2] came to 110%.

B2: 101c: VH SEQ ID NO: 108, VL SEQ ID NO: 110; renamed BKO-4A8-101c (antibody, V domains shown)
VH: EVQLLESGGGLVQPGGSLRLSCAASGFTFSSSTQSWVRQPPGKGLEWVSAISGRGRSTYYADSVKGRFTISRDNSKNTLYLQMNSLRAEDTAVYYCAIQAGYWGQGILVTVSS
VL: QSALTQPPSASGSPGQSVTISCIGTSSDVGGYNYVSWYQQHPGKAPKLMIYEVSKRPSGVPDRFSGSKSGNTASLTVSGLQAEDEADYYCSSYAGSNNFGVFGGGTKLTVL
modifications: 4A8 VH Variant 101 M34Q_A40P_N56S_R75K_M96A; 4A8 VL variant c D41G_N52S_N94S
notes: renamed BKO-4A8-101c
For B2, the “specificity of binding among human CXCR family members” value in experiment [3] was “strongly and exclusively bind human CXCR2”. Moreover, the “CXCL1 Maximal Inhibition %” value with Human CXCR2 [4] (CXCL1 at EC50) stood at 93%. Further, the “CXCL8 Maximal Inhibition %” value in the experiment with Human CXCR2 [4] (CXCL8 at EC50) worked out at 9%. Also, the “Maximal Inhibition % Mean” value in the experiment with Human CXCR2 [4] (Hu CXCL1) turned out to be 91%; with Human CXCR2 [4] (Hu CXCL2) it was 88%; with Human CXCR2 [4] (Hu CXCL3) it was 52%; with Human CXCR2 [4] (Hu CXCL5) it was 81%; with Human CXCR2 [4] (Hu CXCL6), 81%; with Human CXCR2 [4] (Hu CXCL7), 43%. Also, the “Maximal Inhibition % Mean” value in the experiment with Human CXCR2 [4] (Hu CXCL8) was 9%.

For the origin of these results see patent publication US12018084B2, “Anti-CXCR2 antibodies and uses thereof” (Cephalon LLC, priority 2018, dated 2024).
